How the values were obtained:
[1] = test system: FR-positive KB tumor cells; test: Time-dependent cell uptake (membrane bound and internalized fraction) in FR-positive KB cells; assay type: cell-based, human; details: 37° C., 10-180 min
Description: FR-positive KB tumor cells (human oral epidermoid carcinoma) which overexpress FR were grown in T-flask until 80%-90% confluence at 37° C. and 5% CO2 with folid-acid free (deficient) RPMI 1640 medium (FFRPMI) containing 10% heat-inactivated fetal bovine serum (FBS). […] Cells were rinsed twice with ice-cold PBS and pre-incubated with 850 μl of fresh FFRPMI without FBS at 37° C. for 30 min. […] After incubation, the well plates were washed twice with ice-cold PBS.
After that, the cells were washed with an acid wash buffer (50 mM glysine-HCL buffer, pH 2.4), to remove membrane bound radioligand, and the supernatant was collected to measure the membrane bound fraction of radioactivity. Cells were lysed with 1N NaOH, transferred and measured the internalised fraction of radioactivity with γ-counter. Counted radioactivity in membrane bound fraction and internalized fraction could be ascribed to the sum of cell uptake. The cell uptake data was expressed as % cell uptake (cell uptake/total added activity). Each data represents a result of the […] of triplicate wells. The affinity of PKCK-fol was determined using competitive binding assay. ^99mTc-PKC-fol was used as radioligand in this assay. Cells were harvested with typsin and washed with PBS buffer, and 8×10^5 cells were seeded in 12-well plates. […] After that, the cells were collected to measure the radioactivity with γ-counter. […]

in vivo = test: in vivo; design: species or system mice; details: female, nude, mouse, iv, 370 kBq, total radioactivity
Description: (§1) The stock solution of the ^99mTc-labeled PKCK-fol-OH used in the animal studies was prepared for 10^−8 mol/ml with an activity of 370 MBq. Solutions for injection were prepared by the dilution of the stock solution to obtain a desired volumetric activity of 3.7 MBq/ml. The biodistribution experiments for the ^99mTc-labeled PKCK-fol-OH were performed with KB-bearing female nude mice (provided by OrientBio, Republic of Korea). […] After tumor was allowed to grow for 2-3 weeks, the mice were administered 370 kBq (10 uCi)/100 μl intravenously. At 30 min, 1 hr, 3 hr and 24 hr, the animals were sacrificed.
(§2) Table 1 below lists biodistribution results measured at 30 min, 1 hr, 3 hr and 24 hr after injection.

KB tumor xenograft = test: in vivo; design: species or system mice; details: mouse, iv
Description: as §1, §2

folate-receptor (FR) = biological target: T1, folate-receptor (FR) (Homo sapiens, UniProt P15328); test: Competitive binding assay on FR-positive KB cells with 99mTc-labeled folate radioligand
T1 construct: FR-positive KB tumor cells (human oral epidermoid carcinoma) which overexpress FR; endogenous in cells; host or cells: KB cells (human oral epidermoid carcinoma)
T1 sequence (P15328 25-234): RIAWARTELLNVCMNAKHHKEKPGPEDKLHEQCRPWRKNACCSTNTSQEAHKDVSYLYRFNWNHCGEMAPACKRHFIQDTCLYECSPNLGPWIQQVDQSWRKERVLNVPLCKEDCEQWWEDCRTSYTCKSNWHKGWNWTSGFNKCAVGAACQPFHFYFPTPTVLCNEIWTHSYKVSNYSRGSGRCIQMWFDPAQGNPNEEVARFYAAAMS
Description: After that, the cells were washed with an acid wash buffer (50 mM glysine-HCL buffer, pH 2.4), to remove membrane bound radioligand, and the supernatant was collected to measure the membrane bound fraction of radioactivity. Cells were lysed with 1N NaOH, transferred and measured the internalised fraction of radioactivity with γ-counter. Counted radioactivity in membrane bound fraction and internalized fraction could be ascribed to the sum of cell uptake. The cell uptake data was expressed as % cell uptake (cell uptake/total added activity). […] Cells were harvested with typsin and washed with PBS buffer, and 8×10^5 cells were seeded in 12-well plates. […] After that, the cells were collected to measure the radioactivity with γ-counter.

Structure (SMILES): NCCCC[C@H](NC(=O)[C@@H]1CCCN1)C(=O)N[C@@H](CS)C(=O)NCCCC[C@H](NC(=O)CC[C@H](NC(=O)c1ccc(NCc2cnc3nc(N)[nH]c(=O)c3n2)cc1)C(=O)O)C(=O)O (99mTc complex, metal not drawn) [Example 10]
- cell affinity and internalization rate [1]: increased time dependently
- tissue uptake at 0.5 h (in vivo; Blood uptake): 0.64 ± 0.26 %ID/g
- tissue uptake at 1 h (in vivo; Blood uptake): 0.36 ± 0.06 %ID/g
- tissue uptake at 3 h (in vivo; Blood uptake): 0.18 ± 0.05 %ID/g
- tissue uptake at 24 h (in vivo; Blood uptake): 0.06 ± 0.02 %ID/g
- tissue uptake at 0.5 h (in vivo; Heart uptake): 2.25 ± 0.47 %ID/g
- tissue uptake at 1 h (in vivo; Heart uptake): 1.73 ± 0.27 %ID/g
- tissue uptake at 3 h (in vivo; Heart uptake): 1.03 ± 0.32 %ID/g
- tissue uptake at 24 h (in vivo; Heart uptake): 0.1 ± 0.06 %ID/g
- tissue uptake at 0.5 h (in vivo; Kidney uptake): 76.5 ± 5.04 %ID/g
- tissue uptake at 1 h (in vivo; Kidney uptake): 77.2 ± 5.43 %ID/g
- tissue uptake at 3 h (in vivo; Kidney uptake): 41.5 ± 12.1 %ID/g
- tissue uptake at 24 h (in vivo; Kidney uptake): 7.49 ± 1.9 %ID/g
- tissue uptake at 0.5 h (in vivo; Lg Int uptake): 2.43 ± 1.38 %ID/g
- tissue uptake at 1 h (in vivo; Lg Int uptake): 3.43 ± 0.73 %ID/g
- tissue uptake at 3 h (in vivo; Lg Int uptake): 1.48 ± 0.64 %ID/g
- tissue uptake at 24 h (in vivo; Lg Int uptake): 1.38 ± 0.86 %ID/g
- tissue uptake at 0.5 h (in vivo; Liver uptake): 7.21 ± 1.58 %ID/g
- tissue uptake at 1 h (in vivo; Liver uptake): 5.42 ± 1.85 %ID/g
- tissue uptake at 3 h (in vivo; Liver uptake): 2.83 ± 0.6 %ID/g
- tissue uptake at 24 h (in vivo; Liver uptake): 1.09 ± 0.07 %ID/g
- tissue uptake at 0.5 h (in vivo; Lung uptake): 1.7 ± 0.35 %ID/g
- tissue uptake at 1 h (in vivo; Lung uptake): 1.45 ± 0.33 %ID/g
- tissue uptake at 3 h (in vivo; Lung uptake): 0.63 ± 0.26 %ID/g
- tissue uptake at 24 h (in vivo; Lung uptake): 0.12 ± 0.06 %ID/g
- tissue uptake at 0.5 h (in vivo; Sm Int uptake): 0.93 ± 0.54 %ID/g
- tissue uptake at 1 h (in vivo; Sm Int uptake): 0.43 ± 0.05 %ID/g
- tissue uptake at 3 h (in vivo; Sm Int uptake): 0.27 ± 0.12 %ID/g
- tissue uptake at 24 h (in vivo; Sm Int uptake): 0.1 ± 0.05 %ID/g
- tissue uptake at 0.5 h (in vivo; Spleen uptake): 0.47 ± 0.13 %ID/g
- tissue uptake at 1 h (in vivo; Spleen uptake): 0.36 ± 0.03 %ID/g
- tissue uptake at 3 h (in vivo; Spleen uptake): 0.3 ± 0.07 %ID/g
- tissue uptake at 24 h (in vivo; Spleen uptake): 0.1 ± 0.03 %ID/g
- tissue uptake at 0.5 h (in vivo; Stomach uptake): 1.92 ± 0.26 %ID/g
- tissue uptake at 1 h (in vivo; Stomach uptake): 1.2 ± 0.05 %ID/g
- tissue uptake at 3 h (in vivo; Stomach uptake): 0.55 ± 0.16 %ID/g
- tissue uptake at 24 h (in vivo; Stomach uptake): 0.13 ± 0.04 %ID/g
- tissue uptake at 0.5 h (in vivo; Tumor uptake): 2.6 ± 0.53 %ID/g
- tissue uptake at 1 h (in vivo; Tumor uptake): 2.96 ± 0.51 %ID/g
- tissue uptake at 3 h (in vivo; Tumor uptake): 2.24 ± 0.27 %ID/g
- tissue uptake at 24 h (in vivo; Tumor uptake): 0.91 ± 0.28 %ID/g
- tissue to tissue ratio at 0.5 h (in vivo; Tumor/blood ratio): 4.38 ± 0.92
- tissue to tissue ratio at 1 h (in vivo; Tumor/blood ratio): 8.35 ± 1.12
- tissue to tissue ratio at 3 h (in vivo; Tumor/blood ratio): 13.2 ± 2.78
- tissue to tissue ratio at 24 h (in vivo; Tumor/blood ratio): 15.2 ± 4.36
- tissue to tissue ratio at 0.5 h (in vivo; Tumor/kidney ratio): 0.03 ± 0.01
- tissue to tissue ratio at 1 h (in vivo; Tumor/kidney ratio): 0.04 ± 0.01
- tissue to tissue ratio at 3 h (in vivo; Tumor/kidney ratio): 0.06 ± 0.01
- tissue to tissue ratio at 24 h (in vivo; Tumor/kidney ratio): 0.12 ± 0.02
- tissue to tissue ratio at 0.5 h (in vivo; Tumor/liver ratio): 0.38 ± 0.14
- tissue to tissue ratio at 1 h (in vivo; Tumor/liver ratio): 0.58 ± 0.17
- tissue to tissue ratio at 3 h (in vivo; Tumor/liver ratio): 0.82 ± 0.2
- tissue to tissue ratio at 24 h (in vivo; Tumor/liver ratio): 0.83 ± 0.24
- uptake in other organs (lung, heart, stomach and intestines) (KB tumor xenograft): kept at a low level

Structure (SMILES): NCCCCC(NC(=O)C1CCCN1)C(=O)NC(CS)C(=O)NCCCCC(NC(=O)CCC(NC(=O)c1ccc(NCC2=NC3C(=O)NC(N)=NC3N=C2)cc1)C(=O)O)C(=O)O (stereo not shown) [Example 1, PKCK-Fol-OH]
- IC50 (folate-receptor (FR)): 160 nM

Reference: patent US9365599B2, “N3S1 chelator-folate derivatives, preparation method thereof and composition for diagnosis or treatment of cancer containing the same as an active ingredient” (KOREA ATOMIC ENERGY RESEARCH INSTITUTE, priority 2012, dated 2016)
